Numbering of substitutions follows the chain as printed. Non-standard residues stand in square brackets, D forms with d. Groups on a side chain read outwards from the residue. No end group written: not given here. *: point of attachment. C20 diacid = O=C(O)CCCCCCCCCCCCCCCCCCC(=O)*; C18 diacid = O=C(O)CCCCCCCCCCCCCCCCC(=O)*; C17 diacid = O=C(O)CCCCCCCCCCCCCCCC(=O)*; NMeY = CN[C@@H](Cc1ccc(O)cc1)C(=O)O; Aib = CC(C)(N)C(=O)O
B1: Compound No. 69 (peptide)
peptide: [NMeY][Aib]EGTFISDYSI[Aib]LDR[Aib]AQ[Aib]NFVNWLLAQK([2OEGgEgE-C20 diacid])PSSGAPPPS-NH2
B2: Compound No. 70 (peptide)
peptide: YXEGTFISDYSIAXDRXAQXDFVNWLLAQRPSSG
modifications: N-methyl Tyr 1; Aib at 2,17,20; Lys(G5-C18 diacid) at 14; C-terminal OH
B3: Compound No. 7 (peptide)
peptide: [NMeY][Aib]EGTFISDYSIAK([2OEGgEgE-C17 diacid])DR[Aib]AQ[Aib]NFVNWLLAQR-OH
B4: Compound No. 80 (peptide)
peptide: [NMeY][Aib]EGTFISDYSIAK([G4gE-C18 diacid])DR[Aib]AQ[Aib]DFVNWLLAQKG-OH
B5: Compound No. 74 (peptide)
peptide: [NMeY][Aib]EGTFISDYSI[Aib]LDR[Aib]K([2OEGgEgE-C18 diacid])Q[Aib]NFVNWLLAQRG-OH
B6: Compound No. 66 (peptide)
peptide: [NMeY][Aib]EGTFISDYSI[Aib]LDR[Aib]AQ[Aib]K([2OEGgEgE-C18 diacid])FVNWLLAQKG-OH
B7: Compound No. 84 (peptide)
peptide: YXEGTFISDYSIAXDRXAQXDFVNWLLAQSPG
modifications: N-methyl Tyr 1; Aib at 2,17,20; Lys(G5-C18 diacid) at 14; C-terminal OH
B8: Compound No. 76 (peptide)
peptide: YXEGTFISDYSIAXDKXAQXDFVNWLLAQKG
modifications: N-methyl Tyr 1; Aib at 2,17,20; Lys(G5-C18 diacid) at 14; C-terminal OH
B9: Compound No. 78 (peptide)
peptide: B8 peptide with X14L, K16S
modifications: N-methyl Tyr 1; Aib at 2,20; Lys(G5-C18 diacid) at 17; C-terminal OH
B10: Compound No. 77 (peptide)
peptide: B8 peptide with A13X, X14L, K16S
modifications: N-methyl Tyr 1; Aib at 2,13,20; Lys(G5-C18 diacid) at 17; C-terminal OH
B11: Compound No. 82 (peptide)
peptide: B8 peptide with K16R, K30Q
modifications: N-methyl Tyr 1; Aib at 2,17,20; Lys(G5-C18 diacid) at 14; C-terminal OH
B12: Compound No. 6 (peptide)
peptide: [NMeY][Aib]EGTFISDYSIAKDR[Aib]AQ[Aib]NFVNWLLAQK-NH2
modifications: not fully specified (residue 14)
B13: Compound No. 68 (peptide)
peptide: [NMeY][Aib]EGTFISDYSIALDR[Aib]K([2OEGgEgE-C20 diacid])Q[Aib]NFVNWLLAQSPSSGAPPPS-NH2
B14: Compound No. 73 (peptide)
peptide: [NMeY][Aib]EGTFISDYSI[Aib]LDR[Aib]K([2OEGgEgE-C18 diacid])Q[Aib]DFVNWLLAQRG-OH

molecular target: T1, full-length human GIPR with an N-terminal FLAG tag (human, UniProt P48546 22-466); experiment: cell-based or functional assay
T1 sequence (looked up): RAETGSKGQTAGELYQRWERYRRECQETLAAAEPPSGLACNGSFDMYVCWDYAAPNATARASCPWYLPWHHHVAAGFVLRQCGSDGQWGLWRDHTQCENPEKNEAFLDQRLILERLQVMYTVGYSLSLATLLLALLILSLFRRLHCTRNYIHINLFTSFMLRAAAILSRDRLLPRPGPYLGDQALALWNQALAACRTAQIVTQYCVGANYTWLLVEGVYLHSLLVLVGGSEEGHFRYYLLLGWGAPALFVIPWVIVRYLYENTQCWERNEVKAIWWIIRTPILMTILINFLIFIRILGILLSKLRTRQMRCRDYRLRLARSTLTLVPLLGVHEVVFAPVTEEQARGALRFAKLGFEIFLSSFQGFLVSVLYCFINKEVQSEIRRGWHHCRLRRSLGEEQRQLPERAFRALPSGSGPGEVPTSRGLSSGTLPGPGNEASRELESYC

Compared with B1, B2 is 4-fold lower in “Human GIPR cAMP EC50, HEK293T” value: 0.0008 nM for the first, 0.0002 nM for the second.

B3 and B4 are within 1.5-fold of each other in “Human GIPR cAMP EC50, HEK293T” value: 0.0004 nM for the first, 0.0003 nM for the second.

Compared with B5, B6 is 1.6-fold higher in “Human GIPR cAMP EC50, HEK293T” value: 0.0005 nM for the first, 0.0008 nM for the second.

First: B7
Second: B8
The “Human GIPR cAMP EC50, HEK293T” value of the first is 3-fold lower: 0.0002 nM for the first, 0.0006 nM for the second.

B9 and B10 are the same in “Human GIPR cAMP EC50, HEK293T” value: 0.0003 nM for the first, 0.0003 nM for the second.

B11 and B12 are within 1.5-fold of each other in “Human GIPR cAMP EC50, HEK293T” value: 0.0003 nM for the first, 0.0004 nM for the second.

First: B13
Second: B14
The “Human GIPR cAMP EC50, HEK293T” value of the first is 2.3-fold higher: 0.0007 nM for the first, 0.0003 nM for the second.

molecular target: full-length human GLP-1R with an N-terminal FLAG tag (human, UniProt P43220 24-463); experiment: cell-based or functional assay

Going from B1 to B2, the “Human GLP1R cAMP EC50, HEK293T” value falls from 102 nM to 43.7 nM (2.3-fold).

Going from B3 to B4, the “Human GLP1R cAMP EC50, HEK293T” value falls from 589 nM to 115 nM (5.1-fold).

First: B5
Second: B6
The “Human GLP1R cAMP EC50, HEK293T” value of the first is 14-fold higher: 468 nM for the first, 32.4 nM for the second.

First: B7
Second: B8
The “Human GLP1R cAMP EC50, HEK293T” value of the first is 2-fold higher: 58.9 nM for the first, 28.8 nM for the second.

First: B9
Second: B10
The “Human GLP1R cAMP EC50, HEK293T” value of the first is 1.6-fold higher: 26.9 nM for the first, 17 nM for the second.

Compared with B11, B12 is 4.8-fold higher in “Human GLP1R cAMP EC50, HEK293T” value: 17.4 nM for the first, 83.2 nM for the second.

Going from B13 to B14, the “Human GLP1R cAMP EC50, HEK293T” value falls from > 1000 nM to 363 nM.

Source: patent publication US20230143604A1, “QW DOSING OF GIP RECEPTOR AGONIST PEPTIDE COMPOUNDS AND USES THEREOF” (TAKEDA PHARMACEUTICAL COMPANY LIMITED, priority 2020, published 2023)
